Measured values published in article PMC4577212, “X-Ray Structure and Mutagenesis Studies of the N-Isopropylammelide Isopropylaminohydrolase, AtzC” (PLoS ONE, 2015).

Substrate: Nc1nc(O)nc(O)n1
Assay: purified protein
Settings: 200 mM sodium phosphate pH 7.5, glycerol, 301 K, 28.0 °C

B1: AtzC (N-isopropylammelide isopropylaminohydrolase) (Pseudomonas sp. ADP) (protein)
chain: MSKDFDLIIRNAYLSEKDSVYDIGIVGDRIIKIEAKIEGTVKDEIDAKGNLVSPGFVDAHTHMDKSFTSTGERLPKFWSRPYTRDAAIEDGLKYYKNATHEEIKRHVIEHAHMQVLHGTLYTRTHVDVDSVAKTKAVEAVLEAKEELKDLIDIQVVAFAQSGFFVDLESESLIRKSLDMGCDLVGGVDPATRENNVEGSLDLCFKLAKEYDVDIDYHIHDIGTVGVYSINRLAQKTIENGYKGRVTTSHAWCFADAPSEWLDEAIPLYKDSGMKFVTCFSSTPPTMPVIKLLEAGINLGCASDNIRDFWVPFGNGDMVQGALIETQRLELKTNRDLGLIWKMITSEGARVLGIEKNYGIEVGKKADLVVLNSLSPQWAIIDQAKRLCVIKNGRIIVKDEVIVA
  Km: 3.1 ± 0.2 mM
  kcat: 26.2 ± 1.8 s⁻¹
  kcat/Km: 8500 M⁻¹ s⁻¹
